Changes are numbered by the printed parent chain.

To fix the notation:
T1: MICA004-ECD-HISAvi (human)
T1 construct: also called MICA004 polypeptide
T1 chain: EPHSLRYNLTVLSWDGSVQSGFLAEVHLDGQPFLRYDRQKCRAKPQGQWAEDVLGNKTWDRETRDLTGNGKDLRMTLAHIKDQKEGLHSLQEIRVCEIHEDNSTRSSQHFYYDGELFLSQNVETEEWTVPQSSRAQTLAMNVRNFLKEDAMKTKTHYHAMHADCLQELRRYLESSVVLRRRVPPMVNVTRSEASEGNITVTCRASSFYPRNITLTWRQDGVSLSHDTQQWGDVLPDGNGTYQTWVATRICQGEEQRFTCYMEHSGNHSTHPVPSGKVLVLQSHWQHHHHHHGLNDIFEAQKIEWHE

T2: MICA008-ECD-HISAvi (human)
T2 construct: Two sources under one name in the two kinetic assays; also called MICA008 polypeptide
T2 chain: T1 chain with V122L, S175G, R181T, T213I, Q251R

T3: MICB005-ECD-HISAvi (human, UniProt Q29980 24-309)
T3 construct: Two sources under one name in the two kinetic assays; also called MICB005 polypeptide
T3 sequence: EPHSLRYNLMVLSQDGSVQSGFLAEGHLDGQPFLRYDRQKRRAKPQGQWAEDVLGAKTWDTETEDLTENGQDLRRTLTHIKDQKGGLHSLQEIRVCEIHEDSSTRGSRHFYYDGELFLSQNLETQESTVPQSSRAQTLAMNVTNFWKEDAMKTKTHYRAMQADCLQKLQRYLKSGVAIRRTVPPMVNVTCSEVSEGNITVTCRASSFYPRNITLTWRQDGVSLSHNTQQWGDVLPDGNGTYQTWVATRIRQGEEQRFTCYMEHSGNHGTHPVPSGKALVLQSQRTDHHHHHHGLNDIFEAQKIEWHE

T4: human MICA002 on cells (human)
T4 chain: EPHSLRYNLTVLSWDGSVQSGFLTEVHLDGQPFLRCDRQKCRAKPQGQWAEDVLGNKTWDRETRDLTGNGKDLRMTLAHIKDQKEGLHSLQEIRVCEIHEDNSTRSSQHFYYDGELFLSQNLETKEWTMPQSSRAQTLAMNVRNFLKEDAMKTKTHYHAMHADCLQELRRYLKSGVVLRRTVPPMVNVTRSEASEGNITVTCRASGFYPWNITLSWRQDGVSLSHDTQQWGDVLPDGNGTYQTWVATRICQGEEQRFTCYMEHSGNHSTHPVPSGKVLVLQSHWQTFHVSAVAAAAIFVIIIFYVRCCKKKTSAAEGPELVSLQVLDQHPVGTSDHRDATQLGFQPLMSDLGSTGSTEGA

T5: MICA002-ECD-HISAvi (human, UniProt Q29983 24-308)
T5 construct: also called MICA002 polypeptide
T5 chain: T1 chain with W14G, Y36C, V122L, V129M, E173K, S175G, R181T, S206G, R210W, T215S

B1: #31 (antibody, human IgG1, V domains shown)
VH: EVQLQQSGPELVKPGASVKVSCKASGYAFTKYNIYWVKQSHGKSLEWIGYIDPYNGGTVQNQKFKGKATLTVDKSSSTAYMHLNSLTSEDSAVYYCATTDGYSLFTYWGQGTLVTVSS
VL: DIQMTQTTSSLSASLGDRVTISCRASQDIGNYLNWYQQKPDGTVKLLIYYTSRLHSGVPSRFSGSGSGTDYSLTISNLEQEDIATYFCQQGNTLPFTFGSGTKLEIK
notes: also called PL116D11; Hit ID 31
B2: #40 (antibody, human IgG1, V domains shown)
VH: B1 VH with E1Q, Q60Y, S118A
VL: DIQMTQTTSSLSASLGDRVTITCSAGQGINNYLNWYQQKPDGTVKLLIFYTSSLQSGVPSRFSGSGSGADYSLTISNLEPEDIATYYCQQYSKLPLTFGAGTKLELK
notes: also called PL113C03; Hit ID 40
B3: #34 (antibody, human IgG1, V domains shown)
VH: B1 VH with E1Q, Q5K
VL: DIVLTQSPTTMAASPGEKITITCSASSSISSNYLHWYQQKPGFSPKLLIYRTSNLASGVPARFSGSGSGTSYSLTIGTMEAEDVATYYCQQGSSIPFTFGSGTKLEIK
notes: also called PL111H04; Hit ID 34
B4: #36 (antibody, human IgG1, V domains shown)
VH: B1 VH with E1Q, Q60Y, S118A
VL: B1 VL with G30S
notes: also called PL116H11; Hit ID 36
B5: 6E1.1.12 (antibody, human IgG1, kappa, V domains shown)
VH: QGQMQQSGAELVKPGASVKLSCKTSGFTFSDNYISWLKQKPGQSLEWIAWIYAGTGGSSYNQKFRDKAQLTVDTSSRTAYMQLSSLTTEDSAIYYCARHDYYGTSGAWFAYWGRGTLVTVSA
VL: DVLMTQTPLSLPVSLGDQASISCRSSQHIVHSNENTYLEWYLQKPGQSPKLLIYKVSNRFSGVPDRFSGSGSGTDFTLKISRVEAEDLGVYYCFQGSHVPWTFGGGTKVEIKR
B6: #38 (antibody, human IgG1, V domains shown)
VH: QVQLQQSGAELARPGASVKLSCKASGYTFSIHWMQWVKQRPGQGLEWIGAIYPGNGDTKYTQKFKGKATLTADKSSSTAYMQLSNLASEDSAVYYCATLYGNYEAYWGQGTLVTVSA
VL: DIVLTQSPASLSASVGETVTITCGASENIYGALNWYQRKQGKSPQLLIYGTTNLADGMSSRFSGSGSGRQYSLKISSLHPDDVATYYCQNVLTTPPWTFGGGTKLEIK
notes: also called PL114H02; Hit ID 38
B7: #39 (antibody, human IgG1, V domains shown)
VH: QVQLQQSGAELVRPGTSVKVSCKASGYAFTDYLIEWVKQRPGQGLEWIGGINPGSGSTNYNEKFKGKAILTADKSSSTAYMQLSSLTSDDSAVYFCARLDGNYVGYWGQGTTLTVSS
VL: DILLTQSPASLSASVGETVTITCRASGNIHNYLAWYQQKQGKSPQLLVYHAKTLADGVPSRFSGSGSGTQYSLKINSLQPEDFGSYYCQHFWSTPWTFGGGTKLEIK
notes: also called PL114G03; Hit ID 39
B8: B10G5 (antibody, human IgG1, kappa, V domains shown)
VH: EVQLEESGPGLVKPSQSLSLTCTVTGYSITSDYAWNWIRQFPGNKLEWMGYISYSGSTNYNPSLKSRISITRDTSKNQFFLQLNSVITEDTATYYCARGGTYFDYWGQGTTLTVSS
VL: DIVLTQTTSYLSVSLGGRVTIACKASAHINNWLAWYQQKPGNAPRLLISDATSLETGVPSRFSGSGSGKDYTLSITSLQTEDVATYYCQHYWSTPWTFGGGTKLEIKR
notes: also called B10G5-2; P2B10G5

One test concerns the target T6, human MICA008 on cells (human).
T6 construct: whole, on cells; also called CHO-MICA008; C1R-MICA008
The test is described as follows: flow cytometry, HeLa cells (MICA008). A general note: Flow cytometry measures light scatter and fluorescence of single cells or particles in a stream.
Procedure: (§1) IgG1 is an isotype control (IgG). The antibody binding signals of APC (gMFI) to MICA/B were measured by flow cytometry.
(§2) After an incubation time of 30 minutes, the plate was centrifuged and cells were washed with PBS three times. […] After mixing for 30 minutes at room temperature, cells were washed with PBS twice. Fluorescent signal was detected and quantified by flow cytometry (Attune™ CytPix™, ThermoFisher) within the population of live cells (viability dye PI negative).
What is called EC50 is the concentration at which the effect is half-maximal. Read a low EC50 as an effect from little substance. In turn, B1 displayed an EC50 of 0.183 µg/mL.

As for B2, the EC50 amounted to 0.183 µg/mL.

B3: the response was half-maximal at 0.122 µg/mL (EC50). This EC50 is about 1.5-fold lower than that of the molecule before.

Consider B4, for which a half-maximal effect (EC50) was put at 0.189 µg/mL. Compared with the last molecule, the EC50 is about 1.5-fold higher.

Regarding B5, the EC50 came out at 0.269 µg/mL.

The molecule B6 displayed an EC50 of 1.85 µg/mL.

B7 gave an EC50 of 4.27 µg/mL.

The target in a further test is T7, human MICA004 on cells (human).
T7 construct: whole, on cells; also called CHO-MICA004; C1R-MICA004
Nature of the test: flow cytometry, CHO-MICA004 cells.
Procedure: as §1, §2
Molecule B1 yielded an EC50 of 0.221 µg/mL.

In turn, B2 registered an EC50 of 0.306 µg/mL.

Consider B3, for which the EC50 came to 0.202 µg/mL.

For the molecule B4, it took 0.248 µg/mL to reach a half-maximal effect (EC50). The EC50 values of the last two molecules are within 1.5-fold of each other.

The molecule B5 returned an EC50 of 0.239 µg/mL.

B6 returned an EC50 of 3.93 µg/mL.

Turning to B7, the EC50 was found to be 7.27 µg/mL.

For the next test, the target named is T1, MICA004-ECD-HISAvi. The test is described as follows: BLI (GatorPrime); antibody on anti-hIgG Fc probe, monomeric antigen in solution.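 Further: binding kinetics of anti-MICA/B antibodies measured by biolayer interferometry, with dissociation followed for about 10 min.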
Procedure: (§3) The binding kinetics of the antibodies were also measured using the GatorPrime BLI (Biolayer Interferometry) system (Gator Bio, USA). Specifically, the anti-MICA/B antibodies were loaded with HFC (Anti-hIgG Fc, Gator Bio, Cat #: 160003). […] The dissociation kinetics were monitored for approximately 10 minutes. The probes were regenerated between binding cycles with Regeneration Buffer (Gator Bio, Cat #: 120012). Binding kinetics were analyzed using software supplied by the manufacturer.
The term Kd denotes the concentration at which binding is half-saturated. B8 returned a Kd of 1.16 nM.

The next test addresses T8, MICA009Avi (human).
T8 construct: extracellular domain
Described as above.
Procedure: as §3
B5: binding was characterised by a dissociation constant (Kd) of 3.94 nM. That is a single-digit nanomolar value.

The molecule B8 came in with a Kd of 0.716 nM. Against the preceding molecule, the Kd is about 5.5-fold lower.

Another test addresses T2, MICA008-ECD-HISAvi. Described as above.
Procedure: as §3
Take B8: binding was put at a Kd of 0.625 nM.

In a further test the target is T3, MICB005-ECD-HISAvi. Described as above.
Procedure: as §3
With B5, binding was characterised by a dissociation constant (Kd) of 4.54 nM.

For B8, the affinity, expressed as Kd, was 1.35 nM.

A further test deals with T6, human MICA008 on cells. Nature of the test: flow cytometry, CHO-MICA008 cells.
Procedure: as §1, §2
The molecule B1 yielded an EC50 of 0.051 µg/mL.

Molecule B2 showed an EC50 of 0.085 µg/mL. Compared with the last molecule, the EC50 is about 1.7-fold higher.

B3 had an EC50 of 0.048 µg/mL.

B4: the EC50 worked out at 0.063 µg/mL.

Regarding B5, the EC50 amounted to 0.15 µg/mL.

In the case of B6, the EC50 was 1.1 µg/mL.

In turn, B7 displayed an EC50 of 1.31 µg/mL.

The target of another test is T9, human MICB005 on cells (human).
T9 construct: whole, on cells; also called CHO-MICB005; C1R-MICB005
The test is described as follows: flow cytometry, CHO-MICB005 cells.
Procedure: as §1, §2
With B1, the midpoint of the response, the EC50, lay at 0.21 µg/mL.

The molecule B2 displayed an EC50 of 0.445 µg/mL.

With B3, the response was half-maximal at 0.278 µg/mL (EC50).

Consider B4, for which the midpoint of the response, the EC50, lay at 0.249 µg/mL.

B5 showed an EC50 of 0.184 µg/mL.

Molecule B6 came in with an EC50 of 1.42 µg/mL.

B7 returned an EC50 of 1.4 µg/mL. This EC50 and that of the molecule before are within 1.5-fold of each other.

The target in a further test is T4, human MICA002 on cells. Nature of the test: flow cytometry, CHO-MICA002 cells.
Procedure: CHO-MICA002 cells were incubated with titrated anti-MICA/B antibodies and then APC-labeled anti-human Fc antibody. […] The antibody binding signals of APC (gMFI) to MICA/B were measured by flow cytometry.
as §2
In the case of B1, the EC50 is 0.232 µg/mL.

B2 gave an EC50 of 0.176 µg/mL.

Take B3: the EC50 was found to be 0.144 µg/mL.

On to B4, for which a half-maximal response (EC50) required 0.2 µg/mL.

Molecule B5 gave an EC50 of 0.882 µg/mL.

B6 gave an EC50 of 2.48 µg/mL. Against the preceding molecule, the EC50 is about 2.8-fold higher.

Regarding B7, the EC50 came out at 3.68 µg/mL. The EC50 values of the last two molecules are within 1.5-fold of each other.

In another test the target is T1, MICA004-ECD-HISAvi. Nature of the test: SPR (Carterra); antibody captured by anti-human Fc, monomeric ECD antigen injected.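 Further: dissociation phase followed for about 10 min.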
Procedure: (§4) The dissociation kinetics were monitored for approximately 10 minutes. The chip surface was regenerated between binding cycles with 10 mM glycine HCl, pH 1.7. Binding kinetics were analyzed using software supplied by the manufacturer.
The molecule B1 displayed a Kd of 25.3 nM.

The molecule B2 returned a Kd of 30.4 nM.

In turn, B3 came in with a Kd of 44.5 nM. This Kd and that of the molecule before are within 1.5-fold of each other.

Consider B4, for which the Kd worked out at 40.1 nM.

In turn, B8 returned a Kd of 6.92 nM.

B6 had a Kd of 3.77 nM.

For the molecule B7, the Kd worked out at 139 nM.

For another test, the target named is T5, MICA002-ECD-HISAvi. The description is as above.
Procedure: as §4
B1 had a Kd of 13.2 nM.

B2 yielded a Kd of 13.9 nM.

In turn, B3 returned a Kd of 24.9 nM.

B4 showed a Kd of 20.7 nM.

On to B8, for which the binding result was “no binding”.

B6: the Kd worked out at 2.49 nM. In other words, the single-digit nanomolar range.

Molecule B7 came in with a Kd of 14.4 nM.

The target in a further test is T2, MICA008-ECD-HISAvi. The description is as above.
Procedure: as §4
Consider B1, for which the Kd was found to be 14.4 nM.

In the case of B2, the Kd came to 20.5 nM.

The molecule B3 gave a Kd of 29.2 nM. This Kd and that of the molecule before are within 1.5-fold of each other.

Turning to B4, the affinity, expressed as Kd, was 21.2 nM.

Turning to B8, binding was characterised by a dissociation constant (Kd) of 0.846 nM.

As for B6, binding was put at a Kd of 7.04 nM. This Kd is about 8.3-fold higher than that of the molecule before.

In the case of B7, binding was characterised by a dissociation constant (Kd) of 54.8 nM.

In the next test the target is T3, MICB005-ECD-HISAvi. Described as above.
Procedure: as §4
For B1, binding was characterised by a dissociation constant (Kd) of 15 nM.

B2: the Kd worked out at 45.8 nM.

In turn, B3 showed a Kd of 38 nM.

Turning to B4, the Kd came out at 23.1 nM. Against the preceding molecule, the Kd is about 1.6-fold lower.

In turn, B5 returned a Kd of 8.62 nM.

Molecule B8 came in with a Kd of 2.27 nM. Against the preceding molecule, the Kd is about 3.8-fold lower.

On to B6, for which binding was characterised by a dissociation constant (Kd) of 1.78 nM.

Regarding B7, binding was put at a Kd of 5.37 nM.

These data come from patent US20250368742A1 (D2M BIOTHERAPEUTICS, published 2025).
